The target of the assay is B7-1 (mouse (endogenous in mouse podocytes)) (UniProt Q00609).
UniProt Q00609, sequence (Q00609 38-306): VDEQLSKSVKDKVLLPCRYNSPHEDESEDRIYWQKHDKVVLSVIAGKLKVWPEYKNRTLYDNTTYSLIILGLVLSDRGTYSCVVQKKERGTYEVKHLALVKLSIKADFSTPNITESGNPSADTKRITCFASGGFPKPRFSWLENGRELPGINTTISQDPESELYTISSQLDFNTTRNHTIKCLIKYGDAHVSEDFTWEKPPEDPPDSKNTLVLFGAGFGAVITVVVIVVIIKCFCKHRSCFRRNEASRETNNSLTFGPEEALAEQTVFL

The substance “CD28 (from UniProt P31041 20-218) (receptor)” had a late apoptosis rate of LPS-treated podocytes cocultured with γδT cells (Group D), Annexin-PI, 48 hours of 10.2%; a late apoptosis rate of LPS-treated podocytes cocultured with γδT cells and treated with the CD28/B7-1 blocker CTLA4-Ig, 100 μg/ml (Group E), Annexin-PI, 48 hours of 6.43%; a phosphor-SRC immunofluorescence intensity in LPS-treated podocytes cocultured with γδT cells (Group D) of 142; a phosphor-SRC immunofluorescence intensity in LPS-treated podocytes cocultured with γδT cells and treated with the CD28/B7-1 blocker CTLA4-Ig, 100 μg/ml (Group E) of 24.

The record behind these values is PMC5976931.
